Source: paper PMC12381745
Changes are numbered by the printed parent chain. Names and notes keep the numbering of the source.

B1: LHD101A-βit I61C-L1-RNA protein-linker-RNA conjugate (designed binder)
chain: SELAVVAAIISAVARMGVKMELHPSGNEVKVVIKGLHIKQQRQLYRDVREAAKKAGVEVECEVEGDTVTIVVRG
modifications: here or on the partner: cysteine 61 joined by thiol-maleimide Michael addition to linker L1, whose DBCO is joined by SPAAC to the azide-functionalised 17mer RNA conjRNA1
B2: LHD101A-βit G65C-L1-RNA protein-linker-RNA conjugate (designed binder)
chain: B1 chain with C61I, G65C
modifications: here or on the partner: cysteine 65 joined by thiol-maleimide Michael addition to linker L1, whose DBCO is joined by SPAAC to the azide-functionalised 17mer RNA conjRNA1
B3: LHD101A-βit E62C-L1-RNA protein-linker-RNA conjugate (designed binder)
chain: B1 chain with C61I, E62C
modifications: here or on the partner: cysteine 62 joined by thiol-maleimide Michael addition to linker L1, whose DBCO is joined by SPAAC to the azide-functionalised 17mer RNA conjRNA1
B4: LHD101A-βit E62C-L2-RNA protein-linker-RNA conjugate (designed binder)
chain: B1 chain with C61I, E62C
modifications: here or on the partner: cysteine 62 joined by thiol-maleimide Michael addition to linker L2, whose DBCO is joined by SPAAC to the azide-functionalised 17mer RNA conjRNA1
B5: LHD101A-βit E60C-L1 protein-linker conjugate (designed binder)
chain: B1 chain with E60C, C61I
modifications: here or on the partner: cysteine 60 joined by thiol-maleimide Michael addition to linker L1 (maleimide-DBCO, shorter, more rigid)
B6: LHD101A-βit E60C-L2 protein-linker conjugate (designed binder)
chain: B1 chain with E60C, C61I
modifications: here or on the partner: cysteine 60 joined by thiol-maleimide Michael addition to linker L2 (maleimide-DBCO, longer, more flexible)
B7: LHD101A-βit I61C-L2-RNA protein-linker-RNA conjugate (designed binder)
chain: B1 chain
modifications: here or on the partner: cysteine 61 joined by thiol-maleimide Michael addition to linker L2, whose DBCO is joined by SPAAC to the azide-functionalised 17mer RNA conjRNA1
B8: LHD101A-βit G65C-L2-RNA protein-linker-RNA conjugate (designed binder)
chain: B1 chain with C61I, G65C
modifications: here or on the partner: cysteine 65 joined by thiol-maleimide Michael addition to linker L2, whose DBCO is joined by SPAAC to the azide-functionalised 17mer RNA conjRNA1

Experiments:
LHD101B-αLux [1] = assay: split reporter (BiFC, NanoBiT); time-course luminescence; protein-linker-RNA conjugate of A and protein B preincubated until a baseline signal, then RNase A added manually after 30 min; S/B = maximum signal after RNA cleavage divided by the baseline signal
LHD101B-αLux [2] = assay: split reporter (BiFC, NanoBiT); 96-well plate; 2.5 nM BC10 and 2.5 nM B protein with preincubated 100 nM Cas13 and 50 nM crRNA1 in 1x HBS-EP+ buffer, 50 μM LuxSit Pro Substrate; target RNA added after 5 min of baseline; 1 h at room temperature
LHD101B-αLux [3] = assay: split reporter (BiFC, NanoBiT); protein-linker conjugates of protein A with protein B in solution; luminescence relative to the naked cysteine mutant (Figure 2c)

| Binder | S/B change (maximum signal after RNA cleavage by RNase A divided by the baseline signal with intact RNA) (LHD101B-αLux [1]) | further results |
| --- | --- | --- |
| B1 | > 1.3 |  |
| B2 | > 1.3 |  |
| B3 | 2 | maximum S/B ratio (signal after RNA cleavage by activated Cas13 divided by the baseline signal with intact RNA) (LHD101B-αLux [2]): 1.6; maximum luminescence signal after RNA cleavage by RNase A (LHD101B-αLux [1]): 100000 RLU |
| B4 | 1.89 |  |
| B5 |  | luminescence signal relative to the naked cysteine mutant (LHD101B-αLux [3]): > 20% |
| B6 |  | luminescence signal relative to the naked cysteine mutant (LHD101B-αLux [3]): > 20% |
| B7 | > 1.3 |  |
| B8 | > 1.3 |  |
